Laboratory results published in patent US20230074436A1 (DENALI THERAPEUTICS, published 2023).
No end group written: not given here. *: point of attachment. Biotin = O=C1N[C@H]2[C@H](CS[C@H]2CCCCC(=O)*)N1

What was measured:
[1] = target: T1, human alpha-synuclein monomer (human, UniProt P37840 1-140); test: SPR (Biacore), antibody captured, monomer injected, 1:1 fit
Experimental: Anti-mouse Fc antibody (obtained from GE Healthcare) was immobilized on the surface of a CM5 chip (obtained from GE Healthcare) through amine-coupling to reach about 6,000 to 8,000 response units (RU). The surface was activated by injection of a mixture of 1-ethyl-3-(3-dimethylaminopropyl)-carbodiimide (EDC) and N-hydroxysuccinimide (NETS), both obtained from GE Healthcare, for 7 minutes at room temperature. […] Both injections were done at room temperature.
Purified rat anti alpha-synuclein antibody (10 μg/mL) was injected at room temperature and captured to reach 1,000 to 2,000 RU. […] Sensorgrams were fitted using a 1:1 Langmuir model to estimate kₒₙ and koff.

asyn_113-127_117A = target: T2, asyn_113-127_117A (human); test: Ala-scan peptide ELISA, row D, run 1
T2 construct: substitution is already in the entry; also called pep6
T2 peptide: Biotin-LEDMAVDPDNEAYEM
Experimental: (§1) 96-well Nunc plates were coated with 50 μL per well of 1 μg/mL streptavidin (from Jackson Immuno Research Laboratory) in PBS at 4° C. overnight. The plates were washed three times with PBST, and blocked with PBS containing 3% BSA at room temperature for 1 hour. The N-terminal biotinylated peptides were dissolved in Milli Q water to a concentration of 2 mg/mL, then further diluted to a concentration of 2 μg/mL with PBS. 50 μl of the diluted peptide was applied to the streptavidin-coated plates and incubated at 4° C. overnight. 2 μg/mL of biotinylated human alpha-synuclein was used as the positive control. The plates were washed three times with PBST before use. Purified antibody was diluted by serial dilution methods, from 20 μg/mL to 1 ng/mL, and 50 μL of the antibody solution was added to the peptide-coated wells. The plates were incubated for 1 hour at room temperature, then washed three times with PBST. Secondary detection antibody (goat anti-rat HRP (obtained from Southern Biotech)) was added with 1:5,000 dilutions and incubated for 1 hour at room temperature, then washed three times with PBST. Plates were developed with 50 μL/well of TMB substrate (Thermo Fisher) and quenched with 50 μL/well of 1 N sulfuric acid. The signal was quantified on a BioTek® plate reader at A450. A parallel repeat was performed for each peptide in a separate plate.

[2] = target: biotinylated human alpha-synuclein (human, UniProt P37840 1-140); test: Ala-scan peptide ELISA, row D, run 1
Experimental: as §1

asyn_113-127_126A = target: T3, asyn_113-127_126A (human); test: Ala-scan peptide ELISA, row D, run 1
T3 construct: substitution is already in the entry; also called pep16
T3 peptide: Biotin-LEDMPVDPDNEAYAM
Experimental: as §1

asyn_113-127_121A = target: T4, asyn_113-127_121A (human); test: Ala-scan peptide ELISA, row D, run 1
T4 construct: substitution is already in the entry; also called pep10
T4 peptide: Biotin-LEDMPVDPANEAYEM
Experimental: as §1

asyn_113-127 = target: T5, asyn_113-127 (human); test: Ala-scan peptide ELISA, row D, run 1
T5 construct: also called pep1
T5 peptide: Biotin-LEDMPVDPDNEAYEM
Experimental: as §1

asyn_113-127_113A = target: T6, asyn_113-127_113A (human); test: Ala-scan peptide ELISA, row D, run 1
T6 construct: substitution is already in the entry; also called pep2
T6 peptide: Biotin-AEDMPVDPDNEAYEM
Experimental: as §1

asyn_113-127_115A = target: T7, asyn_113-127_115A (human); test: Ala-scan peptide ELISA, row D, run 1
T7 construct: substitution is already in the entry; also called pep4
T7 peptide: Biotin-LEAMPVDPDNEAYEM
Experimental: as §1

asyn_113-127_122A = target: T8, asyn_113-127_122A (human); test: Ala-scan peptide ELISA, row D, run 1
T8 construct: substitution is already in the entry; also called pep11
T8 peptide: Biotin-LEDMPVDPDAEAYEM
Experimental: as §1

asyn_113-127_119A [3] = target: T9, asyn_113-127_119A (human); test: Ala-scan peptide ELISA, row D, run 1
T9 construct: substitution is already in the entry; also called pep8
T9 peptide: Biotin-LEDMPVAPDNEAYEM
Experimental: as §1

asyn_113-127_116A [4] = target: T10, asyn_113-127_116A (human); test: Ala-scan peptide ELISA, row D, run 1
T10 construct: substitution is already in the entry; also called pep5
T10 peptide: Biotin-LEDAPVDPDNEAYEM
Experimental: as §1

asyn_113-127_123A = target: T11, asyn_113-127_123A (human); test: Ala-scan peptide ELISA, row D, run 1
T11 construct: substitution is already in the entry; also called pep12
T11 peptide: Biotin-LEDMPVDPDNAAYEM
Experimental: as §1

asyn_113-127_124P [5] = target: T12, asyn_113-127_124P (human); test: Ala-scan peptide ELISA, row D, run 1
T12 construct: substitution is already in the entry; also called pep14
T12 peptide: Biotin-LEDMPVDPDNEPYEM
Experimental: as §1

asyn_113-127_120A = target: T13, asyn_113-127_120A (human); test: Ala-scan peptide ELISA, row D, run 1
T13 construct: substitution is already in the entry; also called pep9
T13 peptide: Biotin-LEDMPVDADNEAYEM
Experimental: as §1

asyn_113-127_114A = target: T14, asyn_113-127_114A (human); test: Ala-scan peptide ELISA, row D, run 1
T14 construct: substitution is already in the entry; also called pep3
T14 peptide: Biotin-LADMPVDPDNEAYEM
Experimental: as §1

asyn_113-127_127A = target: T15, asyn_113-127_127A (human); test: Ala-scan peptide ELISA, row D, run 1
T15 construct: substitution is already in the entry; also called pep17
T15 peptide: Biotin-LEDMPVDPDNEAYEA
Experimental: as §1

asyn_113-127_118A = target: T16, asyn_113-127_118A (human); test: Ala-scan peptide ELISA, row D, run 1
T16 construct: substitution is already in the entry; also called pep7
T16 peptide: Biotin-LEDMPADPDNEAYEM
Experimental: as §1

asyn_113-127_124G = target: T17, asyn_113-127_124G (human); test: Ala-scan peptide ELISA, row D, run 1
T17 construct: substitution is already in the entry; also called pep13
T17 peptide: Biotin-LEDMPVDPDNEGYEM
Experimental: as §1

asyn_113-127_125A = target: T18, asyn_113-127_125A (human); test: Ala-scan peptide ELISA, row D, run 1
T18 construct: substitution is already in the entry; also called pep15
T18 peptide: Biotin-LEDMPVDPDNEAAEM
Experimental: as §1

[6] = target: T19, alpha-synuclein peptide 95-140 (human); test: ELISA, plate coated with the peptide or protein, antibody titrated, anti-rat HRP, A450
T19 construct: synthetic peptide coated on plate
Experimental: (§2) 96-well Nunc plates were coated with 1 pg/mL of the indicated synthetic peptide in PBS 50 μL/well overnight. The plates were washed three times with PBST, then blocked with 150 μL of 3% BSA in PBS for 1 hour. Purified antibody was diluted by serial dilution methods, from 10 pg/mL to 0.6 ng/ml, and 50 μL of the antibody solution was added to the peptide-coated wells. The plates were incubated for 1 hour at room temperature, then washed three times with PBST. Secondary detection antibody, goat anti-rat HRP (obtained from Southern Biotech) 1:5,000 diluted in BSA-PBS, was added to a concentration of 50 μL/well. Plates were incubated for one hour and washed three times with PBST. Plates were then developed with 50 μL/well of TMB substrate (obtained from Thermo Fisher) and quenched with 50 μL/well of 1 N sulfuric acid. The signal was quantified on a BioTek® plate reader at A450.

[7] = target: T1, human alpha-synuclein monomer; test: as above
Experimental: as §2

[8] = target: T20, alpha-synuclein peptide 1-61 (human); test: as above
T20 construct: synthetic peptide coated on plate
Experimental: as §2

[9] = target: T21, alpha-synuclein peptide 1-95 (human); test: as above
T21 construct: synthetic peptide coated on plate
Experimental: as §2

[10] = target: alpha-synuclein peptide 1-112 (human); test: as above
Experimental: as §2

asyn_113-127_119A [11] = target: T9, asyn_113-127_119A; test: Ala-scan peptide ELISA, row B, run 1
Experimental: as §1

asyn_113-127_116A [12] = target: T10, asyn_113-127_116A; test: Ala-scan peptide ELISA, row B, run 1
Experimental: as §1

asyn_113-127_124P [13] = target: T12, asyn_113-127_124P; test: Ala-scan peptide ELISA, row B, run 1
Experimental: as §1

mouse alpha-synuclein = mouse alpha-synuclein (mouse, UniProt O55042 1-140); test: direct ELISA on coated antigen; Table 6 titration ELISA, mouse aSyn; Bmax 0.1 (weak binding);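 for Bmax (O.D. at 450 nm): plates coated with recombinant human, mouse or rat alpha-synuclein, purified antibody titrated 10 µg/mL down to 0.6 ng/mL for 1 h, bound antibody detected by anti-rat HRP with TMB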
Experimental: (§3) 96-well Nunc plates were coated with 50 μL of recombinant human, mouse, or rat alpha-synuclein at a concentration of 1 μg/mL in PBS at 4° C. overnight. The plates were then washed three times with PBST and blocked with PBS containing 3% BSA at room temperature for 1 hour. Purified antibody was diluted by serial dilution methods, from 10 μg/mL to 0.6 ng/mL, and 50 μL of the antibody solution was added to the alpha-synuclein-coated wells. The plates were incubated for 1 hour at room temperature, then washed three times with PBST. Secondary detection antibody (goat anti-rat HRP (obtained from Southern Biotech)) was added 50 μL/well, 1:5,000 diluted in BSA-PBS solution. Plates were incubated for 1 hour at room temperature, then washed three times with PBST. Plates were subsequently developed with 50 μL/well of TMB substrate (Thermo Fisher) and quenched with 50 μL/well of 1 N sulfuric acid. The signal was quantified on a BioTek® plate reader at A450.

[14] = target: T1, human alpha-synuclein monomer; test: direct ELISA on coated antigen;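 note: plates coated with recombinant human, mouse or rat alpha-synuclein, purified antibody titrated 10 µg/mL down to 0.6 ng/mL for 1 h, bound antibody detected by anti-rat HRP with TMB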
Experimental: as §3

rat alpha-synuclein = rat alpha-synuclein (rat, UniProt P37377 1-140); test: direct ELISA on coated antigen;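 note: plates coated with recombinant human, mouse or rat alpha-synuclein, purified antibody titrated 10 µg/mL down to 0.6 ng/mL for 1 h, bound antibody detected by anti-rat HRP with TMB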
Experimental: as §3

[15] = target: T19, alpha-synuclein peptide 95-140; test: peptide ELISA, coated fragment
Experimental: as §2

[16] = target: T22, alpha-synuclein peptide 61-140 (human); test: peptide ELISA, coated fragment
T22 construct: synthetic peptide coated on plate
Experimental: as §2

B1: 20H4 (antibody, rat IgG2b, V domains shown)
VH: AVQLVESGGGLVQPKESLKISCAASGFTFSNAAMYWVRQAPGKGLELLARIRTKPNNYATYHADSVKGRFTISRDDSQSMVYLHMGNLKTEDTAMYYCTADMATGDYWGPGVMVTVSS
VL: DIQMTQSPPVLSVSVGDRVTLSCKASQNINKNLDWYQQKHGEAPKPLIYSTNNLQTGVPSRFSGSGSGTDYTLTISSLQPEDVATYYCYQYKSAWTFGGGTKLELR
notes: also called clone 20H4; rat 20H4
- Kd [1]: 3.01 nM
- A450 (asyn_113-127_117A): 0.431 OD
- A450 [2]: 0.491 OD
- A450 (asyn_113-127_126A): 0.375 OD
- A450 (asyn_113-127_121A): 0.358 OD
- A450 (asyn_113-127): 0.421 OD
- A450 (asyn_113-127_113A): 0.422 OD
- A450 (asyn_113-127_115A): 0.332 OD
- A450 (asyn_113-127_122A): 0.051 OD
- A450 (asyn_113-127_119A [3]): 0.051 OD
- A450 (asyn_113-127_116A [4]): 0.414 OD
- A450 (asyn_113-127_123A): 0.43 OD
- A450 (asyn_113-127_124P [5]): 0.044 OD
- A450 (asyn_113-127_120A): 0.277 OD
- A450 (asyn_113-127_114A): 0.387 OD
- A450 (asyn_113-127_127A): 0.357 OD
- A450 (asyn_113-127_118A): 0.415 OD
- A450 (asyn_113-127_124G): 0.336 OD
- A450 (asyn_113-127_125A): 0.047 OD
- EC50 (read off the curve) [6]: ~0.3 µg/mL
- EC50 (read off the curve) [7]: ~0.2 µg/mL
- binding result [8]: no binding (tested: 10 µg/ml (1 on the log axis))
- binding result [9]: no binding (tested: 10 µg/ml (1 on the log axis))
- binding result [10]: no binding (tested: 10 µg/ml (1 on the log axis))
- A450 (asyn_113-127_119A [11]): 0.058 OD
- A450 (asyn_113-127_116A [12]): 0.501 OD
- A450 (asyn_113-127_124P [13]): 0.047 OD
- EC50 (mouse alpha-synuclein): 4.3 nM
- Bmax (O.D. at 450 nm) [14]: 0.83 OD
- EC50 [14]: 0.18 nM
- Bmax (O.D. at 450 nm) (rat alpha-synuclein): 0.2 OD
- EC50 (rat alpha-synuclein): 1.5 nM
- antibody concentration at which ELISA is positive [15]: < 40 ng/mL
- antibody concentration at which ELISA is positive [16]: < 40 ng/mL
